Test results as given in publication PMC2438614, “Antibodies Targeting the PfRH1 Binding Domain Inhibit Invasion of Plasmodium falciparum Merozoites” (PLoS Pathogens, 2008).

Molecular target: the molecule itself
Assay: SEC; gel filtration of purified recombinant rRII-3; column and buffer not told in the text shown (Figure S3)

B1: recombinant RII-3 of P. falciparum reticulocyte binding protein homologue 1 (PfRH1), amino acids 500 to 833 (domain or fragment)
chain: LQIVQQKLLEIKQKKNDITHKVQLINHIYKNIHDEILNKKNNEITKIIINNIKDHKKDLQDLLLFIQQIKQYNILTDHKITQCNNYYKEIIKMKEDINHIHIYIQPILNNLHTLKQVQNNKIKYEEHIKQILQKIYDKKESLKKIILLKDEAQLDITLLDDLIQKQTKKQTQTQTQTQKQTLIQNNETIQLISGQEDKHESNPFNHIQTYIQQKDTQNKNIQNLLKSLYNGNINTFIDTISKYILKQKDIELTQHVYTDEKINDYLEEIKNEQNKIDKTIDDIKIQETLKQITHIVNNIKTIKKDLLKEFIQHLIKYMNERYQNMQQGYNNLTN
notes: region II amino acids 500 to 833 (334 residues); Cloned EcoRI/XhoI into pET24a(+); no cleavage of the tag is described; Primers are in Protocol S1; also called rRII-3; source: E. coli BL21-CodonPlus-RIL, purified (Ni-NTA, MonoS ion exchange); not shown: His6, C-terminal, kept
  stoichiometry N: 3
